B1: SEC22B (parent)
chain: AKQLFRKLNEQSPTRCTLEAGAMT

Variants of: B1
Assay: protein stability index of a GFP-peptide fusion (GPS, HEK-293T) (PSI 1-6); higher = more stable
Settings: c terminus: a fixed tail appended
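Note: lentivirally expressed fusions sorted by FACS into six bins by GFP to DsRed ratio, PSI derived from sequencing read proportions per bin multiplied by bin number.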

| Variant | protein stability index |
| --- | --- |
| AKQLFRKLNEQEPTRCTLEAGAMT [S12E] | 3.46 |
| AKQLFRKLNEQHPTRCTLEAGAMT [S12H] | 2.13 |
| AKQLFRKLNEQGPTRCTLEAGAMT [S12G] | 2.14 |
| AKQLFRKLNEQCPTRCTLEAGAMT [S12C] | 2.87 |
| AKQLFRKLNEQAPTRCTLEAGAMT [S12A] | 1.88 |
| AKQLFRKLNEQLPTRCTLEAGAMT [S12L] | 2.84 |
| AKQLFRKLNEQKPTRCTLEAGAMT [S12K] | 1.84 |
| AKQLFRKLNEQFPTRCTLEAGAMT [S12F] | 2.05 |
| AKQLFRKLNEQIPTRCTLEAGAMT [S12I] | 1.86 |
| AKQLFRKLNEQDPTRCTLEAGAMT [S12D] | 3.51 |
| AKQRFRKLNEQSPTRCTLEAGAMT [L4R] | 2.96 |
| AKQVFRKLNEQSPTRCTLEAGAMT [L4V] | 2.07 |
| AKQNFRKLNEQSPTRCTLEAGAMT [L4N] | 2.75 |
| AKQPFRKLNEQSPTRCTLEAGAMT [L4P] | 3.07 |
| AKQTFRKLNEQSPTRCTLEAGAMT [L4T] | 3.27 |
| AKQHFRKLNEQSPTRCTLEAGAMT [L4H] | 3.12 |
| AKQIFRKLNEQSPTRCTLEAGAMT [L4I] | 1.99 |
| AKQDFRKLNEQSPTRCTLEAGAMT [L4D] | 3.27 |
| AKQCFRKLNEQSPTRCTLEAGAMT [L4C] | 2.77 |
| AKQEFRKLNEQSPTRCTLEAGAMT [L4E] | 3.62 |
| AKQGFRKLNEQSPTRCTLEAGAMT [L4G] | 2.94 |
| AKQSFRKLNEQSPTRCTLEAGAMT [L4S] | 3.44 |
| AKQAFRKLNEQSPTRCTLEAGAMT [L4A] | 2.73 |
| AKQWFRKLNEQSPTRCTLEAGAMT [L4W] | 2.02 |

| Variant | protein stability index |
| --- | --- |
| AKQQFRKLNEQSPTRCTLEAGAMT [L4Q] | 2.68 |
| AKQFFRKLNEQSPTRCTLEAGAMT [L4F] | 1.89 |
| AKQKFRKLNEQSPTRCTLEAGAMT [L4K] | 2.89 |
| AKQYFRKLNEQSPTRCTLEAGAMT [L4Y] | 2.32 |
| AKQMFRKLNEQSPTRCTLEAGAMT [L4M] | 2.4 |
| ARQLFRKLNEQSPTRCTLEAGAMT [K2R] | 2.76 |
| APQLFRKLNEQSPTRCTLEAGAMT [K2P] | 2.57 |
| AQQLFRKLNEQSPTRCTLEAGAMT [K2Q] | 2 |
| ATQLFRKLNEQSPTRCTLEAGAMT [K2T] | 1.83 |
| ASQLFRKLNEQSPTRCTLEAGAMT [K2S] | 2.4 |
| AYQLFRKLNEQSPTRCTLEAGAMT [K2Y] | 2.24 |
| AWQLFRKLNEQSPTRCTLEAGAMT [K2W] | 2.92 |
| AVQLFRKLNEQSPTRCTLEAGAMT [K2V] | 1.54 |
| AKQLFRKHNEQSPTRCTLEAGAMT [L8H] | 2.64 |
| AKQLFRKDNEQSPTRCTLEAGAMT [L8D] | 3.66 |
| AKQLFRKFNEQSPTRCTLEAGAMT [L8F] | 2 |
| AKQLFRKNNEQSPTRCTLEAGAMT [L8N] | 2.49 |
| AKQLFRKRNEQSPTRCTLEAGAMT [L8R] | 3.84 |
| AKQLFRKENEQSPTRCTLEAGAMT [L8E] | 3.13 |
| AKQLFRKQNEQSPTRCTLEAGAMT [L8Q] | 3.08 |
| AKQLFRKKNEQSPTRCTLEAGAMT [L8K] | 3.07 |
| AKQLFRKMNEQSPTRCTLEAGAMT [L8M] | 2.55 |
| AKQLFRKWNEQSPTRCTLEAGAMT [L8W] | 3.19 |
| AKQLFRKGNEQSPTRCTLEAGAMT [L8G] | 2.49 |

| Variant | protein stability index |
| --- | --- |
| AKQLFRKSNEQSPTRCTLEAGAMT [L8S] | 2.35 |
| AKQLFRKPNEQSPTRCTLEAGAMT [L8P] | 2.82 |
| AKQLFRKVNEQSPTRCTLEAGAMT [L8V] | 3.09 |
| AKQLFRKANEQSPTRCTLEAGAMT [L8A] | 2.91 |
| AKQLFRKYNEQSPTRCTLEAGAMT [L8Y] | 1.91 |
| AKQLFRKTNEQSPTRCTLEAGAMT [L8T] | 2.89 |
| AKQLFRKINEQSPTRCTLEAGAMT [L8I] | 2.1 |
| AKQLFRKCNEQSPTRCTLEAGAMT [L8C] | 2.35 |
| AKQLFAKLNEQSPTRCTLEAGAMT [R6A] | 2.14 |
| AKQLFYKLNEQSPTRCTLEAGAMT [R6Y] | 2.15 |
| AKQLFPKLNEQSPTRCTLEAGAMT [R6P] | 2.51 |
| AKQLFSKLNEQSPTRCTLEAGAMT [R6S] | 2.53 |
| AKQLFHKLNEQSPTRCTLEAGAMT [R6H] | 2.46 |
| AKQLFDKLNEQSPTRCTLEAGAMT [R6D] | 2.67 |
| AKQLFWKLNEQSPTRCTLEAGAMT [R6W] | 2.12 |
| AKQLFKKLNEQSPTRCTLEAGAMT [R6K] | 2.07 |
| AKQLFVKLNEQSPTRCTLEAGAMT [R6V] | 2.31 |
| AKQLFLKLNEQSPTRCTLEAGAMT [R6L] | 2.99 |
| AKQLFCKLNEQSPTRCTLEAGAMT [R6C] | 2.42 |
| AKQLFGKLNEQSPTRCTLEAGAMT [R6G] | 2.36 |
| AKQLFTKLNEQSPTRCTLEAGAMT [R6T] | 2.27 |
| AKQLFMKLNEQSPTRCTLEAGAMT [R6M] | 1.75 |
| AKQLFIKLNEQSPTRCTLEAGAMT [R6I] | 1.67 |
| AKQLFFKLNEQSPTRCTLEAGAMT [R6F] | 1.49 |

| Variant | protein stability index |
| --- | --- |
| AKQLFQKLNEQSPTRCTLEAGAMT [R6Q] | 2.67 |
| AKQLFEKLNEQSPTRCTLEAGAMT [R6E] | 2.46 |
| AKQLFNKLNEQSPTRCTLEAGAMT [R6N] | 2.05 |
| AKQLFRKLNENSPTRCTLEAGAMT [Q11N] | 2.22 |
| AKQLFRKLNEFSPTRCTLEAGAMT [Q11F] | 1.65 |
| AKQLFRKLNEVSPTRCTLEAGAMT [Q11V] | 1.48 |
| AKQLFRKLNEMSPTRCTLEAGAMT [Q11M] | 2.26 |
| AKQLFRKLNEGSPTRCTLEAGAMT [Q11G] | 2.14 |
| AKQLFRKLNEESPTRCTLEAGAMT [Q11E] | 2.85 |
| AKQLFRKLNESSPTRCTLEAGAMT [Q11S] | 2.1 |
| AKQLFRKLNEKSPTRCTLEAGAMT [Q11K] | 1.96 |
| AKQLFRKLNEHSPTRCTLEAGAMT [Q11H] | 1.99 |
| AKQLFRKLNELSPTRCTLEAGAMT [Q11L] | 1.38 |
| AKQLFRKLNEISPTRCTLEAGAMT [Q11I] | 1.71 |
| AKQLFRKLNEWSPTRCTLEAGAMT [Q11W] | 1.98 |
| AKQLFRKLNECSPTRCTLEAGAMT [Q11C] | 2.13 |
| AKQLFRKLNETSPTRCTLEAGAMT [Q11T] | 1.82 |
| AKQLFRKLNERSPTRCTLEAGAMT [Q11R] | 1.41 |
| AKQLFRKLNEASPTRCTLEAGAMT [Q11A] | 1.77 |
| AKQLFRKLNEYSPTRCTLEAGAMT [Q11Y] | 1.35 |
| AKQLFRKLNEDSPTRCTLEAGAMT [Q11D] | 2.44 |
| AKQLFRKLNEPSPTRCTLEAGAMT [Q11P] | 2.09 |

Reference: the supplement of paper PMC10567573
